{"source": "the Human Domainome abundance scans (Beltran et al. 2025)", "parents": {"B1": {"name": "Homeobox protein cut-like 2, residues 895 to 963; numbered along this chain, O14529 (parent)", "chain": "EVDTLELTRQVKEKLAKNGICQRIFGEKVLGLSQGSVSDMLSRPKPWSKLTQKGREPFIRMQLWLSDQL"}}, "note": "± gives the uncertainty stated by the source.", "data": [{"variants_of": "B1", "experiment": "abundance fitness (aPCA) (normalised: wild type 0, dead -1); higher = more abundant; growth selection in yeast, the domain comes from the species named", "settings": "Homo sapiens", "values": [{"variant": "D39P", "abundance fitness": "-0.184 ± 0.068"}, {"variant": "D39V", "abundance fitness": "-0.389 ± 0.14"}, {"variant": "D39H", "abundance fitness": "-0.279 ± 0.12"}, {"variant": "S38D", "abundance fitness": "0.007 ± 0.048"}, {"variant": "I20R", "abundance fitness": "-0.409 ± 0.051"}, {"variant": "I20A", "abundance fitness": "-0.535 ± 0.052"}, {"variant": "I20C", "abundance fitness": "-0.269 ± 0.065"}, {"variant": "V11S", "abundance fitness": "-0.166 ± 0.037"}, {"variant": "V11Q", "abundance fitness": "-0.218 ± 0.04"}, {"variant": "V11K", "abundance fitness": "-0.081 ± 0.035"}, {"variant": "M40T", "abundance fitness": "-0.224 ± 0.049"}, {"variant": "M40N", "abundance fitness": "-0.473 ± 0.21"}, {"variant": "M40Y", "abundance fitness": "-0.236 ± 0.11"}, {"variant": "M40A", "abundance fitness": "-0.169 ± 0.046"}, {"variant": "W64Y", "abundance fitness": "-0.372 ± 0.092"}, {"variant": "W64Q", "abundance fitness": "-0.907 ± 0.066"}, {"variant": "W64I", "abundance fitness": "-1.19 ± 0.25"}, {"variant": "W64N", "abundance fitness": "-0.678 ± 0.28"}, {"variant": "W64G", "abundance fitness": "-0.942 ± 0.093"}, {"variant": "Q68E", "abundance fitness": "-0.014 ± 0.039"}, {"variant": "Q68Y", "abundance fitness": "-0.105 ± 0.044"}, {"variant": "Q68K", "abundance fitness": "0.062 ± 0.041"}, {"variant": "V37G", "abundance fitness": "-0.206 ± 0.048"}, {"variant": "V37R", "abundance fitness": "-0.223 ± 0.032"}, {"variant": "V37L", "abundance fitness": "0.016 ± 0.027"}, {"variant": "I59S", "abundance fitness": "-0.118 ± 0.034"}, {"variant": "I59P", "abundance fitness": "-0.937 ± 0.043"}, {"variant": "Q22L", "abundance fitness": "-0.003 ± 0.032"}, {"variant": "Q22F", "abundance fitness": "-0.182 ± 0.07"}, {"variant": "L50A", "abundance fitness": "-0.748 ± 0.049"}, {"variant": "L50Y", "abundance fitness": "-0.191 ± 0.066"}, {"variant": "L50P", "abundance fitness": "-1.04 ± 0.069"}, {"variant": "L50S", "abundance fitness": "-0.865 ± 0.052"}, {"variant": "A16Y", "abundance fitness": "-0.234 ± 0.1"}, {"variant": "A16S", "abundance fitness": "0.008 ± 0.038"}, {"variant": "L7S", "abundance fitness": "-0.041 ± 0.032"}, {"variant": "R55I", "abundance fitness": "-0.684 ± 0.066"}, {"variant": "R55P", "abundance fitness": "-0.814 ± 0.07"}, {"variant": "R55S", "abundance fitness": "-0.559 ± 0.053"}, {"variant": "R55N", "abundance fitness": "-0.671 ± 0.088"}, {"variant": "L15F", "abundance fitness": "-0.157 ± 0.043"}, {"variant": "Q52A", "abundance fitness": "0.042 ± 0.03"}, {"variant": "D67Y", "abundance fitness": "-0.321 ± 0.065"}, {"variant": "D67W", "abundance fitness": "-0.661 ± 0.1"}, {"variant": "D67S", "abundance fitness": "-0.082 ± 0.042"}, {"variant": "D67K", "abundance fitness": "-0.037 ± 0.078"}, {"variant": "D67C", "abundance fitness": "-0.576 ± 0.11"}, {"variant": "L41N", "abundance fitness": "-0.481 ± 0.067"}, {"variant": "K12M", "abundance fitness": "-0.237 ± 0.037"}, {"variant": "K12W", "abundance fitness": "-0.547 ± 0.031"}, {"variant": "K12Y", "abundance fitness": "-0.528 ± 0.058"}, {"variant": "L69S", "abundance fitness": "-0.052 ± 0.043"}, {"variant": "L69R", "abundance fitness": "-0.08 ± 0.04"}, {"variant": "L69I", "abundance fitness": "-0.221 ± 0.11"}, {"variant": "F25P", "abundance fitness": "-1.05 ± 0.41"}, {"variant": "F25A", "abundance fitness": "-0.827 ± 0.079"}, {"variant": "P46V", "abundance fitness": "-0.415 ± 0.29"}, {"variant": "L65M", "abundance fitness": "-0.294 ± 0.034"}, {"variant": "L65I", "abundance fitness": "-0.278 ± 0.065"}, {"variant": "L65T", "abundance fitness": "-0.975 ± 0.058"}, {"variant": "P57E", "abundance fitness": "-0.139 ± 0.1"}, {"variant": "P57V", "abundance fitness": "-0.117 ± 0.074"}, {"variant": "P57C", "abundance fitness": "-0.139 ± 0.14"}, {"variant": "R9W", "abundance fitness": "-0.385 ± 0.03"}, {"variant": "R9S", "abundance fitness": "-0.16 ± 0.033"}, {"variant": "R9K", "abundance fitness": "-0.086 ± 0.044"}, {"variant": "L30C", "abundance fitness": "-0.234 ± 0.043"}, {"variant": "L30A", "abundance fitness": "-0.447 ± 0.083"}, {"variant": "L30S", "abundance fitness": "-0.418 ± 0.049"}, {"variant": "S42Y", "abundance fitness": "-0.075 ± 0.04"}, {"variant": "S42E", "abundance fitness": "0.059 ± 0.095"}, {"variant": "S42H", "abundance fitness": "-0.007 ± 0.045"}, {"variant": "S42P", "abundance fitness": "-0.159 ± 0.05"}, {"variant": "E1Q", "abundance fitness": "-0.278 ± 0.12"}, {"variant": "E1H", "abundance fitness": "-0.149 ± 0.27"}, {"variant": "E1W", "abundance fitness": "-0.239 ± 0.088"}, {"variant": "K49H", "abundance fitness": "0.009 ± 0.039"}, {"variant": "R43D", "abundance fitness": "0.013 ± 0.08"}, {"variant": "R43Q", "abundance fitness": "-0.066 ± 0.044"}, {"variant": "Q10N", "abundance fitness": "-0.128 ± 0.046"}, {"variant": "L5T", "abundance fitness": "0.015 ± 0.032"}, {"variant": "Q34Y", "abundance fitness": "-0.05 ± 0.038"}, {"variant": "S33A", "abundance fitness": "-0.042 ± 0.031"}, {"variant": "S33G", "abundance fitness": "-0.03 ± 0.033"}]}]}
